Data reported in patent US20120141441.

Test system: Cre recombinase (bacteriophage P1 ?)
Experiment: cell_activity
Conditions: excision of reprogramming cassette in iPSC; typically 50% or more of clones; verified by Southern blot and PCR

In the case of “loxP sites flanking reprogramming cassette (p4FLR)”, the activity (% clones with EGFP loss) is reported as over 50.
